Laboratory results: patent US20240400663A1 (Regeneron, published 2024)

B1: H1H29146P2 (antibody, V domains shown)
VH: EVQLVESGGGLVQPGGSLQLSCAASGFAFSDSAIYWVRQASGKGLEWVGRIRNKANRFATAYGASVKGRFSIHRDDSKNTAYLQMNSLKTEDTAVYYCARHGHDTLTEGYGMDVWGQGTTVTVSS
VL: not shown
B2: H1H29151P2 (antibody, V domains shown)
VH: QVQLVESGGGLVKPGGSLRLSCAASGFTFSDYYMNWVRQAPGKGLEWVSYISNSGNTQYYADSVKGRFTISRDNAKNSLFLQMNSLRAEDTAVYYCTREGLEYSSSEPFDYWGQGTLVTVSS
VL: not shown
B3: H1H29163P2 (antibody, V domains shown)
VH: QVQLVQSGAEVKKPGASVKVSCKTSGYTFTAYYIHWVRQAPGQGLEWMGWINPNNGDTNYALRFQGRVTMTRDMSINTAYMELRGLRSDDTAVYYCARDDLAAAGIGWFDSWGQGTLVTVSS
VL: not shown
B4: H1H29094P (antibody, V domains shown)
VH: not shown
VL: DIQMTQSPSSLSASVGDRVTITCQASQDINRDLNWYQQKSGKGPKLLIYDASNLETGVPSRFSGNRFGTDFTFTISRLQPEDIATYFCQQYKNLPYTFGQGTKLEIKR
B5: H1H29125P (antibody, V domains shown)
VH: QVQLVESGGGVVQPGRSLRLSCAASGFTFSSYGMHWVRQAPGKGLEWMAVISYDGSNKYYADSVKGRFTISRDNSKNTLFLQMNSLRPEDTAVYYCAQDGSSAIYYFYGMDVWGQGTTVTVSS
VL: DIQMTQSPSSLSASIGDRVTITCRASQDINNYLAWFQQKPGKAPKSLIYAASSLQSGVPSKFSGSGSGTDFTLTISSLQPEDFATYYCLQYNSYHPTFGQGTKLEIKR
B6: H1H29166P2 (antibody, V domains shown)
VH: EVQLVESGGGLLQPGRSLRLSCVASGFTFDDYAMHWVRQAPGKGLEWVSGISWNSESIGYADSVRGRFTISRDNAKNSLYLQMNSLRAEDTALYYCAKAPYSGTYFEYFRHWGQGTLVTVSS
VL: not shown
B7: H1H29149P2 (antibody, V domains shown)
VH: QVQLQESGPGLVKPSQTLSLTCTVSGGSISSGGYYWNWIRQHPGKGLEWIGYIYYSGSTYYNPSLKSRVTISVDTSKNQFSLKLGSVTAADTAVYYCARAPPYNWFDYWGQGTLVTVSS
VL: not shown
B8: H1H29179P2 (antibody, V domains shown)
VH: QVQLQESGPGLVKPSQTLSLTCTVSGGSISSSGYYWSWIRQHPGRGLEWIGYIYYSGSTYYNPSLKSRVTISVDTSKNQFSLKLNSVTAADTAVYYCARVDYGSGSSFDYWGQGTLVTVSS
VL: not shown
B9: H1H29138P (antibody, V domains shown)
VH: QVQLVESGGGVVQPGRSLRLSCAASGFTFSTYGMHWVRQAPGKGLEWVAVIWYDGTNKYYADSVKGRFTISRDNSKNTLYLQMISLRAEDTAVYYCARDPSGGDHYYYYGMDVWGQGTTVTVSS
VL: DIQMTQSPSSLSASVGDRITITCQASQDISNYLNWYQQKPGKAPNLLISDASDLETGVPSRFSGSGSGTDFTFTISSLQPEDFATYYCQQYDNIPITFGQGTRLEIKR
B10: H1H29171P2 (antibody, V domains shown)
VH: QVQLVESGGGVVQPGRSLRLSCAASGFTFSSYGMHWVRQAPGKGLEWVAVISYDGSNKYYADSVKGRFTISRDNSKNTLYLQMNSLRAEDTAVYYCAKDDWNYDAFDIWGQGTMVTVSS
VL: not shown
B11: H1H29192P2 (antibody, V domains shown)
VH: QVQLVQSGAEVKKPGASVRVSCMASGYTFTGYYMHWVRQAPGQGLEWMGWINPNSGGTKYAQKFQGRVTMTRDTSISTAYMELSRLRSDDTAVYYCAREEVDDFWSGYLDYWGQGTLVTVSS
VL: not shown
B12: H1H29141P (antibody, V domains shown)
VH: QVQLVESGGGVVQPGRSLRLSCAASGFTFSSYGMHWVRQAPGKGLEWVTFISFDERNKYYADSVKGRFTISRDNSKNTLYLQMNSLRAEDTAMYYCASEVGYSFGHDAFDIWGQGTMVTVSS
VL: not shown
B13: H1H29183P2 (antibody, V domains shown)
VH: QVQLVQSGPEVKKPGASVKVSCKASGYTFTSYGISWVRQAPGQGLEWLGWISGFNGRTDYTEKLQDRITMTTDRSSSTAYMELRSLRYDDTAVYYCARDGLEKLGDYWGQGTLVTVSS
VL: not shown

Columns and labels:
Assay in all cases: cell-based or functional assay
[1] = target: PfRH5 of Plasmodium falciparum strain D10 (on live parasites) (Plasmodium falciparum)
[2] = target: PfRH5 of Plasmodium falciparum strain W2-mef (on live parasites) (Plasmodium falciparum)
[3] = target: PfRH5 of Plasmodium falciparum strain FCR-1/FVO (on live parasites) (Plasmodium falciparum)
[4] = target: PfRH5 of Plasmodium falciparum strain HB3 (on live parasites) (Plasmodium falciparum)
[5] = target: PfRH5 of Plasmodium falciparum strain Cam3.II (on live parasites) (Plasmodium falciparum)
[6] = target: PfRH5 of Plasmodium falciparum strain RF7 (on live parasites) (Plasmodium falciparum)
[7] = target: PfRH5 of Plasmodium falciparum strain 7G8 (on live parasites) (Plasmodium falciparum)
[8] = target: PfRH5 of Plasmodium falciparum strain Dd2 (on live parasites) (Plasmodium falciparum)

Binder	Max growth inhibition (%) D10 [1]	Max growth inhibition (%) W2-mef [2]	Max growth inhibition (%) FCR-1/FVO [3]	Max growth inhibition (%) HB3 [4]	Max growth inhibition (%) Cam3.II [5]	Max growth inhibition (%) RF7 [6]	Max growth inhibition (%) 7G8 [7]	Max growth inhibition (%) Dd2 [8]
B1	10.8%	0.57%	7.32%	33.9%	8.18%	5.97%	19.1%	–
B2	38.7%	53.9%	53.7%	31.7%	26.3%	18.3%	47.5%	58%
B3	–	63.7%	64.5%	56.5%	46.7%	10.7%	62.6%	61.2%
B4	35.9%	34.9%	51.2%	45.4%	26.2%	15.2%	29.9%	41.6%
B5	75.4%	64.6%	67.6%	–	42.7%	21%	47%	51.4%
B6	70.9%	61.9%	69.7%	54.9%	55.9%	19.4%	54.6%	60%
B7	66%	42.8%	58%	40%	36.2%	14.7%	–	–
B8	62.5%	22.9%	49%	40.9%	33.4%	-2.99%	34.1%	13.5%
B9	57.1%	66.4%	84.1%	51.4%	48.7%	51.4%	57.4%	74.4%
B10	10.6%	0.74%	11.7%	0.52%	5.45%	-12.5%	17%	7.71%
B11	8.7%	4.35%	15.1%	5.62%	-3.38%	-7.69%	12.4%	-15.2%
B12	50%	56.2%	74.2%	50%	49.3%	32.1%	54.6%	65.3%
B13	6.79%	-0.55%	16.1%	4.92%	8.66%	-6.27%	17.8%	0.68%
